Reference: patent publication US20190117753A1 (VIRGINIA COMMONWEALTH UNIVERSITY, published 2019)

Target: T1, sLe^x-capped PSGL-1 on transfected Chinese hamster ovary cells (PSGL-1 CHO cells) (UniProt Q14242 42-412, sLe^x-capped (sialylated and fucosylated) glycans (so in the source))
T1 construct: whole, on cells; also called sialylated PSGL-1; sLe^x-modified PSGL-1
T1 sequence: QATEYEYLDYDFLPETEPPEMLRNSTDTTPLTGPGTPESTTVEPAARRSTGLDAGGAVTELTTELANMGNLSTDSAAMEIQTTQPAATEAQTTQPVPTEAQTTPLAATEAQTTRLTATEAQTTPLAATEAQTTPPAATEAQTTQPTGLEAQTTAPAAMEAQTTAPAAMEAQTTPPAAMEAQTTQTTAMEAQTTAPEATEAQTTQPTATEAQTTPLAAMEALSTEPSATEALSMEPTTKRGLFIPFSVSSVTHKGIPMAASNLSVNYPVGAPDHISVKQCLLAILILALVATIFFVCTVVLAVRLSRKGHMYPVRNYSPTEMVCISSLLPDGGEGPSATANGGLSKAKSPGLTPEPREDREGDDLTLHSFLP
Test: PSGL-1 CHO cells preincubated with GST-OmpA; competitor: Aph organisms (data not shown)

B1: GST-OmpA (N-terminal glutathione-S-transferase-tagged A. phagocytophilum OmpA, excluding the signal sequence) (other)
chain: CGTLLPDSNVGVGRHDLGSHRSVAFAKKVEKVYFDIGKYDLKGPGKKVILELVEQLRQDDSMYLVVIGHADATGTEEYSLALGEKRANAVKQFIIGCDKSLAPRVTTQSRGKAEPEVLVYSTDAQEVEKANAQNRRAVIVVEFAHIPRSGVADMHAPVASSITSENSNASAEGEDMEASEFSSAIAN
notes: also called GST-ApOmpA; GST-tagged Aph OmpA; not shown: glutathione-S-transferase (GST) tag, N-terminal, from the pDest-15 vector
- reduction of Aph binding to sLe^x-modified PSGL-1 relative to GST alone: ~60%
